Assay results as given in paper PMC8287961.

Biological target: KAP1 (UniProt Q13263)
Assay: GFP-Trap IP from nuclear lysate, coomassie gel
Conditions: reference: GFP-HP1β wild type; sites S89,S91

binding against the reference: weaker
Substance: HP1β (from UniProt P83917) GFP-HP1β S89/91A
